± gives the standard deviation of the averaged measurements.
B1: library; a variant is named by its letters at N, in order (parent)
chain: ACATTTGTTGATACAACCATAAAATGATAATTACACCCATAAATTGATAATTATCACACCCANNNNNNNNNNNNNNCTCTGATCATAGTCAGACCAACATTGCTACGACCCGTATTCGCACCGACAC

How the values were obtained:
[1] = variants of: B1; assay: relative integration efficiency (T-RL orientation) vs wild-type transposon end (log2 (normalized fold change)); transposon end mutated: right end (5 bp flank + 75 bp right end); higher = more efficient transposition; conditions: with VchCAST RNA-guided transposition machinery (E. coli BL21(DE3) host, lacZ target)
Description: (§1)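 Pooled, barcoded VchCAST (Tn6677) mini-transposon donor libraries; each variable transposon-end sequence sits in a fixed pDonor mini-transposon context (10-bp barcode and cargo not included). Left- or right-end libraries were co-transformed with pEffector (TniQ-Cascade, TnsABC, lacZ crRNA, T7, 0.1 mM IPTG) into E. coli BL21(DE3) and grown 18 h at 37 C. T-LR and T-RL junction amplicons were sequenced; output/input barcode fold change was normalised to the mean of four wild-type barcodes and log2-transformed. Two biological replicates; zero-count/undetected variants carry floor values (-10 / -15), censored here. Barcode uncoupling by PCR recombination adds noise.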

[2] = variants of: B1; assay: relative integration efficiency (T-LR orientation) vs wild-type transposon end (log2 (normalized fold change)); transposon end mutated: right end (5 bp flank + 75 bp right end); higher = more efficient transposition; conditions: with VchCAST RNA-guided transposition machinery (E. coli BL21(DE3) host, lacZ target)
Description: as §1

Variant	relative integration efficiency (log2) [1]	relative integration efficiency (log2) [2]
ATTTAACTATAACG A49T	-1.3 ± 0.35	2.31 ± 0.04
ATTTAACTATAACG A49C	-1.46 ± 0.19	2.17 ± 0.094
TAAATTGATAAACG	-0.208 ± 0.021	0.342 ± 0.21
TAAATTGATATTGC C17T	7.24e-05 ± 0.068	-0.744 ± 0.39
TAATATGATATTGC	-0.0671 ± 0.049	0.438 ± 0.31
TAAATTGATATTGC C34A	-0.0537 ± 0.0045	0.162 ± 0.16
TAAATTGATATTGC C34G	-0.73 ± 0.11	-0.479 ± 0.0065
TAAATTGATATTGC C34T	-1.32 ± 0.14	-0.474 ± 0.43
ATTTAACTATAACG T54C	-1.04 ± 0.22	2.37 ± 0.24
TAAAATGATAATTA C59A	0.000716 ± 0.075	-0.0217 ± 0.15
ATTTAACTATAACG T31G	-1.44 ± 0.31	2.54 ± 0.17
TAAATTGATATTGC C36A	0.40973 ± 0.00019	0.478 ± 0.0049
TAAATTGATATTGC A58T	-0.281 ± 0.054	1.17 ± 0.41
TAAATTGATATTGC T78G	0.0385 ± 0.031	0.078 ± 0.44
TAAATTGAGATTGC	-0.3392 ± 0.00035	0.765 ± 0.23
TAAATTCTATTTGC	-0.619 ± 0.18	2.22 ± 0.053
TAAAGTGATATTGC	0.000666 ± 0.021	0.119 ± 0.27
TAAATTGACATTGC	-0.167 ± 0.015	0.353 ± 0.12
ATTTAACTATAACG T48C	-1.24 ± 0.25	2.03 ± 0.086
ATTTAACTATAACG T48G	-1.18 ± 0.2	1.85 ± 0.083

Variant	relative integration efficiency (log2) [1]	relative integration efficiency (log2) [2]
TAAATTGATATTGC T51G	-0.507 ± 0.097	-0.118 ± 0.2
ATTTAACTATAACG	-0.618 ± 0.17	2.52 ± 0.22
ATTTAACTATAACG T9C	-0.756 ± 0.26	2.493 ± 0.0031
ATTTAACTATAACG A50G	-1.62 ± 0.3	2.18 ± 0.28
ATTTAACTATAACG A50T	-1.29 ± 0.33	2.34 ± 0.11
ATTTAACTATAACG A50C	-1.36 ± 0.36	2.44 ± 0.1
TAAATTGTATATGC	-0.247 ± 0.1	0.948 ± 0.27
TAAATTAATATTGC	-0.319 ± 0.15	1.63 ± 0.083
ATTTAACTATAACG G26C	-2.84 ± 0.47	1.17 ± 0.16
ATTTAACTATAACG G26A	-1.27 ± 0.28	2.69 ± 0.084
TAAATTGATATTGC A3C	-0.109 ± 0.047	-0.337 ± 0.37
TAAATTGATATTGG C77G	-0.0309 ± 0.041	-0.0151 ± 0.56
TAAATTGATATTGA	0.138 ± 0.028	0.0994 ± 0.1
ATTTAACTATAACG T44G	-0.646 ± 0.027	2.17 ± 0.033
TAAATTGATAATGC	0.111 ± 0.029	0.354 ± 0.21
TAAATTGATATTGC T25A	-0.524 ± 0.069	-0.8 ± 0.34
TAAATTGATATTGC T25C	-0.146 ± 0.0084	-0.488 ± 0.0056
TAAATTGATATTGC T25G	-0.25 ± 0.041	-0.0581 ± 0.34
ATTTAACTATAACG A43C	-0.798 ± 0.095	2.4 ± 0.038
ATTTTTGATATTGC	-0.244 ± 0.095	1.64 ± 0.1

Variant	relative integration efficiency (log2) [1]	relative integration efficiency (log2) [2]
TAAATTGATATTGC C61G	0.142 ± 0.018	0.81 ± 0.3
TAAATTGATATTGC A42C	-0.945 ± 0.052	-0.708 ± 0.35
TCCATTGATATTGC	-0.657 ± 0.14	2.16 ± 0.029
TAAATTGATATTGC C57G	-0.05 ± 0.075	1.552 ± 0.015
TAAATTGATATTGC C57T	-0.204 ± 0.0024	0.91 ± 0.032
ATTTAACTATAACG A22G	-1.42 ± 0.27	1.36 ± 0.45
ATTTAACTATAACG A22C	-1.71 ± 0.34	1.21 ± 0.057
ATTTAACTATAACG A22T	-0.696 ± 0.12	2.5 ± 0.18
TAAATTGATATTGC C38G	0.03 ± 0.16	-0.489 ± 0.06
TAAATTGATATTGC C38T	0.335 ± 0.044	-0.111 ± 0.49
ATTTAACTATAACG T20C	-1.47 ± 0.3	1.3 ± 0.48
TAAATTGATATTGC T32G	-1.26 ± 0.063	0.729 ± 0.26
TAAATTGATATTGC A30C	-0.623 ± 0.12	-0.195 ± 0.17
TAAATTGATATTGC A30G	-0.795 ± 0.13	-0.2 ± 0.08
TAAATTGATATTGC A30T	-0.464 ± 0.16	-0.0553 ± 0.55
ATTTAACTATAACG T25A	-1.13 ± 0.11	2.26 ± 0.046
ATTTAACTATAACG T25C	-1.07 ± 0.25	2.2 ± 0.17
ATTTAACTATAACG T12A	-0.998 ± 0.097	2.03 ± 0.032

Source: the supplement of paper PMC10201428
